Reference: publication PMC6363478
pKd: −log10 of the molar value.

Biological target: rat EMILIN1 C-terminus fusion protein in pRSET-A (REM) (rat)
Test: SPR

pKd: 6.57
Substance: rat organ of Corti CNGA3 C-terminus fusion protein in pRSET-A (RA3-C) (domain or fragment)
